Data as given in patent US6825325 (FRAUNHOFER GESELLSCHAFT ZUR FORDERUNG DER ANGEWANDTEN …, dated 2004).

What was measured:
[1] = molecular target: T1, GST-30K fusion protein (bacterially expressed 30K TMV movement protein fused to GST) (Schistosoma japonicum; Tobacco mosaic …, UniProt P03583 1-268); experiment: ELISA of scFvs (member of the panel of 10)
T1 construct: not shown: glutathione S-transferase, Schistosoma japonicum (Pharmacia GST-System)
T1 sequence (looked up): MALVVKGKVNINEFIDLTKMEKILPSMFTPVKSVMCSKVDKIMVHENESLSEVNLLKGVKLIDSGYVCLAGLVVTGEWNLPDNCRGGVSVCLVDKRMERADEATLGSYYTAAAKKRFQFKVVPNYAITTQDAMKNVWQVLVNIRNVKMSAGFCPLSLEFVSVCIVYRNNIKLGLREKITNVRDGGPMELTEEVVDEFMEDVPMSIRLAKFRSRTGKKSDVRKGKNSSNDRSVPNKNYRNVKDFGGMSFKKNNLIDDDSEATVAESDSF

[2] = molecular target: bacterially expressed GST-protein alone (Schistosoma japonicum, UniProt P08515 1-218 = GST); experiment: ELISA of scFvs (member of the panel of 10)
Chain of bacterially expressed GST-protein alone (P08515 whole entry): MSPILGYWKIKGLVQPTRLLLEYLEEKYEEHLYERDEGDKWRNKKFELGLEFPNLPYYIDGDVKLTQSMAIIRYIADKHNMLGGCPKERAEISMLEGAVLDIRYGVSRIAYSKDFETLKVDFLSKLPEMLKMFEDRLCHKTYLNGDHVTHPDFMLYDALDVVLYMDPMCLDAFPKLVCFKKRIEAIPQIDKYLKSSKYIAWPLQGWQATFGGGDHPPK

B1: scFv 30-2 (scFv)
scFv: EVKLQQSGAELVKPGASVKISCKASDYSFTGYNMNWVKQSHGKSLEWIGNINPYYGSTSYNQKFKGKATLTVDKSSSTAYMQLNSLTSEDSAVYYCAVGGNYVDWFAYWGQGTLVTVSSGGGGSGGGGSGGGGSDILLTQSPLSLPVSLGDHASISCRSSQSLVHSNGNTYLHWYLQNPGQSPKLLIYKVSNRFSGIPDRFSGSGSGTDFTLKISRVEAEDLGVYFCSQSTHVPYTFGGGTKLELKRAVDAAAEQKLISEEDLNGAA
notes: also called 30K specific scFv No. 2; scFv 30K-2
Does B1 bind [1]?
Result: binds

Does B1 bind [2]?
Result: no binding
